{"source": "patent US20170210777A1", "about": "(FUJIFILM, published 2017)", "key": {"[1]": {"target": "T1, Bovine Serum Albumin (BSA, manufactured by Sigma-Aldrich) (bovine, UniProt P02769 25-607)", "T1 construct": "Injected at 1000 nM over the immobilised ligands in SPR (selectivity test)", "T1 sequence (P02769 25-607 limits assumed)": "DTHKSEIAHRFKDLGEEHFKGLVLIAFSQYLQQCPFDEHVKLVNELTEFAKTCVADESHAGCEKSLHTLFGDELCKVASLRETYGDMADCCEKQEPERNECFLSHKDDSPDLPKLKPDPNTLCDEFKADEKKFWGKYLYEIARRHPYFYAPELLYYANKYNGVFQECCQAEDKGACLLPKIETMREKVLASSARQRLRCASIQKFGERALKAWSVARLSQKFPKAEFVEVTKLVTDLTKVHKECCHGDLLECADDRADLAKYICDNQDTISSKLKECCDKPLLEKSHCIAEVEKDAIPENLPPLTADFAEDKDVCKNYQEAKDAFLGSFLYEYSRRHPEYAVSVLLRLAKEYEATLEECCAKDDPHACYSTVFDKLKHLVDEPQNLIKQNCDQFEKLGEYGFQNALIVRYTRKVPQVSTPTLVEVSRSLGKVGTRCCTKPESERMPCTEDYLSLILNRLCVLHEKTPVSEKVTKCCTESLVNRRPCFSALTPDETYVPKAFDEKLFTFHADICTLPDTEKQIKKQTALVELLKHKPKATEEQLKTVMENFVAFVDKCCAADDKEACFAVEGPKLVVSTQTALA", "assay": "SPR, ligand immobilised on CM5, BSA injected 10 min at 25 C"}, "human IgG antibody [2]": {"target": "T2, human IgG antibody (human)", "T2 construct": "Injected at 10 to 3000 nM over the immobilised ligands in SPR", "assay": "SPR (Biacore), ligand immobilised on CM5, fit with BIAevaluation 4.1"}, "human IgG antibody [3]": {"target": "T2, human IgG antibody", "assay": "SPR (Biacore), ligand immobilised on CM5"}}, "note": "Square brackets hold non-standard residues; d marks the D form. Ends that are not written are not given here. peg8 = octa(ethylene glycol) chain, 8 ethylene glycol units", "data": [{"binder": "EQQNAFY (Synthetic peptide, immobilised on a CM5 sensor chip by EDC/NHS coupling; also called polypeptide 1)", "note": "[polypeptide as set forth in SEQ ID NO: 1 (EQQNAFY)]", "values": [{"measurement": "binding result", "setting": "[1]", "value": "no binding (tested: 1000 nM)"}, {"measurement": "koff", "setting": "human IgG antibody [2]", "value": 0.00017, "unit": "s⁻¹"}]}, {"binder": "EGQNAFY (Synthetic peptide, immobilised on a CM5 sensor chip; also called immobilized carrier E)", "note": "[polypeptide as set forth in SEQ ID NO: 5 (EGQNAFY)]", "values": [{"measurement": "binding result", "setting": "[1]", "value": "no binding (tested: 1000 nM)"}, {"measurement": "koff", "setting": "human IgG antibody [3]", "value": 0.0002, "unit": "s⁻¹"}]}, {"binder": "EQQSAFY (Synthetic peptide, immobilised on a CM5 sensor chip; also called immobilized carrier J)", "note": "[polypeptide as set forth in SEQ ID NO: 10 (EQQSAFY)]", "values": [{"measurement": "binding result", "setting": "[1]", "value": "no binding (tested: 1000 nM)"}, {"measurement": "koff", "setting": "human IgG antibody [3]", "value": 0.00015, "unit": "s⁻¹"}]}, {"binder": "DQQSAFY (Synthetic peptide, immobilised on a CM5 sensor chip; also called immobilized carrier L)", "note": "[polypeptide as set forth in SEQ ID NO: 12 (DQQSAFY)]", "values": [{"measurement": "binding result", "setting": "[1]", "value": "no binding (tested: 1000 nM)"}, {"measurement": "koff", "setting": "human IgG antibody [3]", "value": 0.00015, "unit": "s⁻¹"}]}, {"binder": "KEQQNAFY (Synthetic peptide, immobilised on a CM5 sensor chip; also called immobilized carrier B)", "note": "[polypeptide as set forth in SEQ ID NO: 2 (KEQQNAFY)]", "values": [{"measurement": "binding result", "setting": "[1]", "value": "no binding (tested: 1000 nM)"}, {"measurement": "koff", "setting": "human IgG antibody [3]", "value": 0.00013, "unit": "s⁻¹"}]}, {"binder": "EQQSAFYEILH (Synthetic peptide, immobilised on a CM5 sensor chip; also called immobilized carrier K)", "note": "[polypeptide as set forth in SEQ ID NO: 11 (EQQSAFYEILH)]", "values": [{"measurement": "binding result", "setting": "[1]", "value": "no binding (tested: 1000 nM)"}, {"measurement": "koff", "setting": "human IgG antibody [3]", "value": 0.00018, "unit": "s⁻¹"}]}, {"binder": "EQQNAFYEILH (Synthetic peptide, immobilised on a CM5 sensor chip; also called immobilized carrier C)", "note": "[polypeptide as set forth in SEQ ID NO: 3 (EQQNAFYEILH)]", "values": [{"measurement": "binding result", "setting": "[1]", "value": "no binding (tested: 1000 nM)"}, {"measurement": "koff", "setting": "human IgG antibody [3]", "value": 0.00017, "unit": "s⁻¹"}]}, {"binder": "DQQSAFYEILH (Synthetic peptide, immobilised on a CM5 sensor chip; also called immobilized carrier M)", "note": "[polypeptide as set forth in SEQ ID NO: 13 (DQQSAFYEILH)]", "values": [{"measurement": "binding result", "setting": "[1]", "value": "no binding (tested: 1000 nM)"}, {"measurement": "koff", "setting": "human IgG antibody [3]", "value": 0.00015, "unit": "s⁻¹"}]}, {"binder": "EQQNAFYEILHL (Synthetic peptide, immobilised on a CM5 sensor chip; also called immobilized carrier D)", "note": "[polypeptide as set forth in SEQ ID NO: 4 (EQQNAFYEILHL)]", "values": [{"measurement": "binding result", "setting": "[1]", "value": "no binding (tested: 1000 nM)"}, {"measurement": "koff", "setting": "human IgG antibody [3]", "value": 0.00013, "unit": "s⁻¹"}]}, {"binder": "Ac-EQQNAFYEILHK (Synthetic peptide, immobilised on a CM5 sensor chip; also called immobilized carrier U)", "note": "[polypeptide Ac-EQQNAFYEILHK (SEQ ID NO: 21)]", "values": [{"measurement": "binding result", "setting": "[1]", "value": "no binding (tested: 1000 nM)"}, {"measurement": "koff", "setting": "human IgG antibody [3]", "value": 0.00016, "unit": "s⁻¹"}]}, {"binder": "KKKEQQNAFYKKK (Synthetic peptide, immobilised on a CM5 sensor chip; also called immobilized carrier F)", "note": "[polypeptide as set forth in SEQ ID NO: 6 (KKKEQQNAFYKKK)]", "values": [{"measurement": "binding result", "setting": "[1]", "value": "no binding (tested: 1000 nM)"}, {"measurement": "koff", "setting": "human IgG antibody [3]", "value": 0.00015, "unit": "s⁻¹"}]}, {"binder": "KKKEQQNAFYEILHKKK (Synthetic peptide, immobilised on a CM5 sensor chip; also called immobilized carrier G)", "note": "[polypeptide as set forth in SEQ ID NO: 7 (KKKEQQNAFYEILHKKK)]", "values": [{"measurement": "binding result", "setting": "[1]", "value": "no binding (tested: 1000 nM)"}, {"measurement": "koff", "setting": "human IgG antibody [3]", "value": 0.00016, "unit": "s⁻¹"}]}, {"binder": "EQQNAFYGGGKGGGEQQNAFY (Synthetic fusion polypeptide of two EQQNAFY units with a GGGKGGG linker, immobilised on a CM5 sensor chip; also called immobilized carrier H)", "note": "[polypeptide as set forth in SEQ ID NO: 8 (EQQNAFYGGGKGGGEQQNAFY)]", "values": [{"measurement": "binding result", "setting": "[1]", "value": "no binding (tested: 1000 nM)"}, {"measurement": "koff", "setting": "human IgG antibody [3]", "value": 0.00015, "unit": "s⁻¹"}]}, {"binder": "EQSAFY (Synthetic peptide, immobilised on a CM5 sensor chip; also called immobilized carrier O)", "note": "[polypeptide as set forth in SEQ ID NO: 15 (EQSAFY)]", "values": [{"measurement": "binding result", "setting": "[1]", "value": "no binding (tested: 1000 nM)"}, {"measurement": "koff", "setting": "human IgG antibody [3]", "value": 0.00014, "unit": "s⁻¹"}]}, {"binder": "EQNAFY (Synthetic peptide, immobilised on a CM5 sensor chip; also called immobilized carrier I)", "note": "[polypeptide as set forth in SEQ ID NO: 9 (EQNAFY)]", "values": [{"measurement": "binding result", "setting": "[1]", "value": "no binding (tested: 1000 nM)"}, {"measurement": "koff", "setting": "human IgG antibody [3]", "value": 0.00017, "unit": "s⁻¹"}]}, {"binder": "DQSAFY (Synthetic peptide, immobilised on a CM5 sensor chip; also called immobilized carrier R)", "note": "[polypeptide as set forth in SEQ ID NO: 18 (DQSAFY)]", "values": [{"measurement": "binding result", "setting": "[1]", "value": "no binding (tested: 1000 nM)"}, {"measurement": "koff", "setting": "human IgG antibody [3]", "value": 0.00019, "unit": "s⁻¹"}]}, {"binder": "EAQQSAFY (Synthetic peptide, immobilised on a CM5 sensor chip; also called immobilized carrier N)", "note": "[polypeptide as set forth in SEQ ID NO: 14 (EAQQSAFY)]", "values": [{"measurement": "binding result", "setting": "[1]", "value": "no binding (tested: 1000 nM)"}, {"measurement": "koff", "setting": "human IgG antibody [3]", "value": 0.00014, "unit": "s⁻¹"}]}, {"binder": "EAQQNAFY (Synthetic peptide, immobilised on a CM5 sensor chip; also called immobilized carrier P)", "note": "[polypeptide as set forth in SEQ ID NO: 16 (EAQQNAFY)]", "values": [{"measurement": "binding result", "setting": "[1]", "value": "no binding (tested: 1000 nM)"}, {"measurement": "koff", "setting": "human IgG antibody [3]", "value": 0.00019, "unit": "s⁻¹"}]}, {"binder": "DAQQSAFY (Synthetic peptide, immobilised on a CM5 sensor chip; also called immobilized carrier Q)", "note": "[polypeptide as set forth in SEQ ID NO: 17 (DAQQSAFY)]", "values": [{"measurement": "binding result", "setting": "[1]", "value": "no binding (tested: 1000 nM)"}, {"measurement": "koff", "setting": "human IgG antibody [3]", "value": 0.00013, "unit": "s⁻¹"}]}, {"binder": "EQQNAFY-NH2 (Synthetic peptide, immobilised on a CM5 sensor chip; also called immobilized carrier S)", "note": "[polypeptide EQQNAFY-NH2 (SEQ ID NO: 19)]", "values": [{"measurement": "binding result", "setting": "[1]", "value": "no binding (tested: 1000 nM)"}, {"measurement": "koff", "setting": "human IgG antibody [3]", "value": 0.00015, "unit": "s⁻¹"}]}, {"binder": "Ac-EQQNAFYK (Synthetic peptide, immobilised on a CM5 sensor chip; also called immobilized carrier T)", "note": "[polypeptide Ac-EQQNAFYK (SEQ ID NO: 20)]", "values": [{"measurement": "binding result", "setting": "[1]", "value": "no binding (tested: 1000 nM)"}, {"measurement": "koff", "setting": "human IgG antibody [3]", "value": 0.00014, "unit": "s⁻¹"}]}, {"binder": "peg8-EQQNAFYE (Synthetic peptide, immobilised on a CM5 sensor chip; also called immobilized carrier X)", "note": "[polypeptide H2N-(peg)8-EQQNAFYE (SEQ ID NO: 24)]", "values": [{"measurement": "binding result", "setting": "[1]", "value": "no binding (tested: 1000 nM)"}, {"measurement": "koff", "setting": "human IgG antibody [3]", "value": 0.00013, "unit": "s⁻¹"}]}, {"binder": "Ac-KKKEQQNAFYKKK (Synthetic peptide, immobilised on a CM5 sensor chip; also called immobilized carrier V)", "note": "[polypeptide Ac-KKKEQQNAFYKKK (SEQ ID NO: 22)]", "values": [{"measurement": "binding result", "setting": "[1]", "value": "no binding (tested: 1000 nM)"}, {"measurement": "koff", "setting": "human IgG antibody [3]", "value": 0.00015, "unit": "s⁻¹"}]}, {"binder": "Ac-KKKEQQNAFYEILHKKK (Synthetic peptide, immobilised on a CM5 sensor chip; also called immobilized carrier W)", "note": "[polypeptide Ac-KKKEQQNAFYEILHKKK (SEQ ID NO: 23)]", "values": [{"measurement": "binding result", "setting": "[1]", "value": "no binding (tested: 1000 nM)"}, {"measurement": "koff", "setting": "human IgG antibody [3]", "value": 0.00016, "unit": "s⁻¹"}]}, {"binder": "Ac-EQQNAFY[peg8]K[peg8]EQQNAFY (Synthetic fusion polypeptide, 15 amino acid residues, the two units and the central Lys joined by PEG linkers and not by peptide bonds; immobilised on a CM5 sensor chip; also called immobilized carrier Y)", "note": "[fusion polypeptide Ac-EQQNAFY-(peg)8-K-(peg)8-EQQNAFY (SEQ ID NO: 25)]", "values": [{"measurement": "binding result", "setting": "[1]", "value": "no binding (tested: 1000 nM)"}, {"measurement": "koff", "setting": "human IgG antibody [3]", "value": 0.00019, "unit": "s⁻¹"}]}, {"binder": "QQNAFYEI (Synthetic comparative peptide, immobilised on a CM5 sensor chip; also called immobilized carrier AC)", "note": "[polypeptide as set forth in SEQ ID NO: 26 (QQNAFYEI)]", "values": [{"measurement": "koff", "setting": "human IgG antibody [3]", "value": 0.00024, "unit": "s⁻¹"}]}]}
